In the supplement of paper PMC12764529:
± gives the half width of the 95% confidence interval.

Key:
[1] = folding stability dG unfold from trypsin proteolysis; higher = more stable
Procedure, shortened: (§1)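 Designed mini-proteins (under 80 residues, no cysteine) in a PA-tagged cDNA display construct were digested with trypsin and chymotrypsin. Each protease was used at 11 concentrations (threefold dilutions) plus a no-protease condition, followed by sequencing. K50 was inferred by Bayesian fitting of sequencing counts, and unfolding free energy was derived against a sequence-predicted unfolded-state K50 and a shared folded-state K50, per protease or combined. Only designs with AlphaFold2 dimer inter-PAE above 15 were kept.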

[2] = folding stability dG unfold from chymotrypsin proteolysis; higher = more stable
Procedure, shortened: as §1

[3] = folding stability dG unfold (combined trypsin and chymotrypsin); higher = more stable
Procedure, shortened: as §1

Sequence | folding stability dG unfold [1] | folding stability dG unfold [2] | folding stability dG unfold [3]
SAGGGSISPAIVAALRAAGASLEEIVAYLNEQGYPIASVLGEEEHHHHHHITLLLPETGETVTVELHSAGGS [r8_179_JUSTAS] | 2.43 ± 0.068 kcal/mol | 3.029 ± 0.028 kcal/mol | 2.79 ± 0.096 kcal/mol
SAGGGSMEVVKEEVSEEVEVLPNGTVLTTKTITYKTPDGKEYTETVLERVDPVTGKREVIEKKTYPSSAGGS [r16_50_JUSTAS] | 1.59 ± 0.12 kcal/mol | 2.64 ± 0.045 kcal/mol | 2.4 ± 0.1 kcal/mol
SAGGGSMFSTIYDPNSNNSIEAPLLSIREEDGRPTIEYQLPDGTRVTRPLSELGAFTLTGGAGSLTLPSAGG [r13_211_JUSTAS] | 0.83 ± 0.052 kcal/mol | 0.552 ± 0.14 kcal/mol | 0.774 ± 0.075 kcal/mol
SAGGGSMKTIELTVTNPATGETVTVTLELDPSVSEEEVEARIKETEEAVEKELLAPEPPLAPTPARASAGGS [r16_191_JUSTAS] | -0.465 ± 0.096 kcal/mol | 1.22 ± 0.023 kcal/mol | 0.765 ± 0.062 kcal/mol
SAGGGSMLIRRRLLLVERIEDGLLTYDIEEEVYLPLPEPEVPVSVERRPDGSLVLTFPDGTRRLLPRSAGGS [r16_136_JUSTAS] | 1.65 ± 0.077 kcal/mol | 2.39 ± 0.17 kcal/mol | 2.01 ± 0.13 kcal/mol
SAGGGSMTPTTTTKTYNVPPELAQKILDGYPLGDKELAAALGLPPDVEVTLVSSDEDTLTVEITIPASAGGS [r16_679_JUSTAS] | 3.48 ± 0.14 kcal/mol | 4.05 ± 0.068 kcal/mol | 3.81 ± 0.075 kcal/mol
SAGGGSMVTQTEFTLPDGTKVSESTLPDGTVTTTITDPTNPTVTTSPVRTVSPGPLSPANPALVAALSAGGS [r16_482_JUSTAS] | -1.09 ± 0.18 kcal/mol | -0.17 ± 0.18 kcal/mol | -0.317 ± 0.1 kcal/mol
SAGGGSSSSSLTFTYDPATGKVLGSESFTIPSPSGEPRTNVLTLVEKNPSGTLKTTVLTRPVPPTLSSAGGS [r16_595_JUSTAS] | 1.55 ± 0.1 kcal/mol | 2.62 ± 0.096 kcal/mol | 2.66 ± 0.35 kcal/mol
SAGGGSTTTRTIGSKDGTVATVTVTTDPATGTTTVTISSPSPEVLEEVAAQLGLPVREVLPDGTVVLASAGG [r13_937_JUSTAS] | 0.659 ± 0.023 kcal/mol | 1.25 ± 0.015 kcal/mol | 1.08 ± 0.037 kcal/mol
SAGGGSTTTYSIPEGPLTLEVTTVTVGDGTVKKTVVTTPEGKRTEIPPSNPITIPPNWTVTSSVTLTSAGGS [r16_669_JUSTAS] | -0.114 ± 0.12 kcal/mol | 0.0533 ± 0.16 kcal/mol | 0.0118 ± 0.16 kcal/mol
SAGGHTIWIPFDSPEQAKELANEIARELNDHGLKVKVKVHPDDGWIKVKVDMRNNDKEKKIKIWFPFPSAGG [r13_641_TrROS] | 0.844 ± 0.1 kcal/mol | 2.44 ± 0.18 kcal/mol | 1.78 ± 0.36 kcal/mol
SAGGIAEAIGEAIAKAPGVAEVEVDIEITKIEPTPGDGAYAHIDIRVRARHPVTGEEVELRFDIVFPLDSAG [r5_176_TrMRF] | 2.89 ± 0.14 kcal/mol | 3.18 ± 0.15 kcal/mol | 3.05 ± 0.17 kcal/mol
SAGGIEDIANEFGIEDVEIEEINPEYNEVTVTFRFRGPNGNPFTWTYTIEVPPPPPPEPKMDPEDNNNSAGG [r13_608_TrROS] | 1.06 ± 0.12 kcal/mol | 2.44 ± 0.16 kcal/mol | 1.81 ± 0.32 kcal/mol
SAGGIIIYPKDPDGKQRPIPPEVIRRIVDTIARRYGFEIKIDIEIEPTNDYWVITIPIEIEGLPPEQLSAGG [r13_790_TrROS] | 1.87 ± 0.06 kcal/mol | 2.23 ± 0.068 kcal/mol | 2.18 ± 0.086 kcal/mol
SAGGIKEFADTLQDHGGTVTVEPVNNGSLKVSIQHRDPEDGRMYRMEIEIPPENNKLEIDDWEPYPNSAGGS [r16_613_TrROS] | 0.071 ± 0.15 kcal/mol | 0.31 ± 0.27 kcal/mol | 0.0987 ± 0.21 kcal/mol
SAGGIKELAKKGYEIKEVTVRVRNKDGSVYEITEIKVVDGELYIKVKNKKTGKIEEKKIPLKDIEIVPSAGG [r13_340_TrROS_Hall] | 1.19 ± 0.045 kcal/mol | 2.12 ± 0.029 kcal/mol | 1.83 ± 0.09 kcal/mol
SAGGIKIEIMFLMPLKDVRSIIDEIAKMPGIKITDVEVDIIPFENGTVMFRVTFEIEIYDPENGEPISAGGS [r8_374_TrROS] | 3.95 ± 0.21 kcal/mol | 4.78 ± 0.18 kcal/mol | 4.27 ± 0.36 kcal/mol
SAGGIPPNDPEYQQKMQLLKEIQNFAKEQQQNGRDVKIETIEINPEDGRVTITVQYPNGKKVTITIPSAGGS [r8_277_TrROS] | 1.79 ± 0.057 kcal/mol | 1.56 ± 0.048 kcal/mol | 1.66 ± 0.064 kcal/mol

Sequence | folding stability dG unfold [1] | folding stability dG unfold [2] | folding stability dG unfold [3]
SAGGIWIPIDRIREALKDGMPLDEIVDKLRKHGFPIDRITGIEPSPNSWTIEIEFPEQGMPIEIQISSAGGS [r8_179_TrROS] | 1.93 ± 0.052 kcal/mol | 1.66 ± 0.035 kcal/mol | 1.9 ± 0.085 kcal/mol
SAGGIWIPVPNADWAVDFIIEFIDQFGPGAKIDKITVYNGGKEREITPGEPPKIPPGSWFEIDLEPKSAGGS [r16_267_TrROS] | 0.698 ± 0.037 kcal/mol | 1.15 ± 0.085 kcal/mol | 0.984 ± 0.075 kcal/mol
SAGGKDGKPKPKVEPEITVQFYIPLPPDDLTPEEIAQWMSDHFGFPFTNVEIERHPEDNYYRVSFTIRSAGG [r13_457_TrROS] | 1.86 ± 0.064 kcal/mol | 2.56 ± 0.1 kcal/mol | 2.4 ± 0.086 kcal/mol
SAGGKDVKPIPVRIKIWYPDDGKPIHEIPVSAYQMDDKIHITFESPELLQFAKELAQKKGFKVEIEPSAGGS [r16_327_TrROS] | 0.513 ± 0.047 kcal/mol | 0.751 ± 0.12 kcal/mol | 0.695 ± 0.11 kcal/mol
SAGGKEKKKEKEEKKKKPKPKFIKIKLSPEELLKLAKELPNIDRIFVEVDGKLYEFDAKTGKIVEVDSAGGS [r16_214_TrROS_Hall] | 1.28 ± 0.1 kcal/mol | 2.4 ± 0.08 kcal/mol | 1.97 ± 0.18 kcal/mol
SAGGKEKKPKVELKITSISEFEGGLVIEGEATTPTKKIKVLAVYDPSTGKITVWRETPEGIEPLAEFGSAGG [r13_445_TrMRF] | 1.76 ± 0.059 kcal/mol | 2.401 ± 0.018 kcal/mol | 2.18 ± 0.049 kcal/mol
SAGGKEKVKIKIKIIDKKTNKVYEAEATFDKETGKVTITFPDGSKITFDLKTNKLYIEKDGKIIEIESAGGS [r16_743_TrROS_Hall] | 2.66 ± 0.27 kcal/mol | 3.53 ± 0.091 kcal/mol | 3.19 ± 0.28 kcal/mol
SAGGKEKYKIKIYNKKTGKEYEFEIPLDEIVKYDKKNKKIYIKLKNGKKLEFKSLEDIVKIEIEKLPSAGGS [r8_111_TrROS_Hall] | 2.34 ± 0.088 kcal/mol | 3.48 ± 0.056 kcal/mol | 3.14 ± 0.14 kcal/mol
SAGGKELILKLKIEVNGKTLTIEVKVSPEELKKLLDELKKLGIKEIEIESIEFDKETNEIKVKVKVKSAGGS [r8_219_TrROS_Hall] | 2.52 ± 0.063 kcal/mol | 4.09 ± 0.17 kcal/mol | 3.77 ± 0.15 kcal/mol
SAGGKEVKPIKGKVKITVNGKEIEVEVKKAKIVKNKDGSYYIFIEKDGKKLLIKLKNGKLVKIEEVPSAGGS [r16_721_TrROS_Hall] | 2.37 ± 0.097 kcal/mol | 3.89 ± 0.042 kcal/mol | 3.42 ± 0.089 kcal/mol
SAGGKEWYIKVSIEHRNPNNGEKRELSITIPVEGMSAEEALDIARELARHLPPENVKIEVDIVPLDDSAGGS [r16_774_TrROS] | 1.78 ± 0.051 kcal/mol | 2.08 ± 0.032 kcal/mol | 1.86 ± 0.17 kcal/mol
SAGGKEYTAKVVEIKKVGNKIFIKIKLSDGRELTIEIKTPEEAKKLKVGDTVKITVNEDGSLTIEVLSAGGS [r16_2_TrROS_Hall] | 4.22 ± 0.15 kcal/mol | 4.33 ± 0.064 kcal/mol | 4.29 ± 0.074 kcal/mol
SAGGKGKAVPFEIEFEAPGGKKVKAKITRIDLPDKPIYRVEVEVDGKKITYTATEDEAANLTFTPGGSAGGS [r8_257_TrMRF] | 1.48 ± 0.058 kcal/mol | 2.21 ± 0.035 kcal/mol | 1.92 ± 0.16 kcal/mol
SAGGKIEVEPEVELYRTPDGRLVARPKPVKVKITLKLTITNENGEKKTIEVEADTPEEALAALKALSSAGGS [r8_440_TrROS_Hall] | 1.03 ± 0.053 kcal/mol | 0.726 ± 0.2 kcal/mol | 0.965 ± 0.14 kcal/mol
SAGGKIIAEGEFELEDGYVVRVKVEYDEETGELRVEVEVFEVEVELPEVEVKREFSDEELTEEEKEASAGGS [r8_461_TrROS_Hall] | 0.897 ± 0.19 kcal/mol | 1.77 ± 0.17 kcal/mol | 1.39 ± 0.25 kcal/mol
SAGGKIKIKSVEVQPNPDGMRKVTLEFQDGGKEHKVEIYVHPGGIMISIPNGKTRTIPWDDLDDIKLSAGGS [r16_593_TrROS] | 0.52 ± 0.093 kcal/mol | 1.22 ± 0.15 kcal/mol | 1.01 ± 0.18 kcal/mol
SAGGKIKIQFNGQEFTITEFEIIEPQPNKGGGPYYRIRIKFPNGPMEIMIPPNMPPEIKPGDTFTIASAGGS [r16_638_TrROS] | 1.797 ± 0.015 kcal/mol | 1.96 ± 0.032 kcal/mol | 1.93 ± 0.066 kcal/mol
SAGGKIPKNAKILEVEFDPETGYIRIKVEFYDKNGKLIKKAEITIPILPVPPLSPEDIEKLLKALASSAGGS [r16_697_TrMRF] | 3.15 ± 0.12 kcal/mol | 3.85 ± 0.17 kcal/mol | 3.59 ± 0.17 kcal/mol
